Assay results: PMC9317006, “A Fiber-Based SPR Aptasensor for the In Vitro Detection of Inflammation Biomarkers”

Key:
hemoglobin = assay: fiber-based SPR; conditions: 100 nM protein; 3' thiol; Detection buffer: 25 mM Tris base, 192 mM glycine, 0.05% Tween 20, 0.1% BSA, 2 mM CaCl2, 100 mM NaCl, pH 8.0; binding temperature not stated (RI calibration at …)
fibrinogen = assay: fiber-based SPR; conditions: 100 nM protein; 3' thiol; Detection buffer: 25 mM Tris base, 192 mM glycine, 0.05% Tween 20, 0.1% BSA, 2 mM CaCl2, 100 mM NaCl, pH 8.0; binding temperature not stated (RI calibration at …)
[1] = biological target: cardiac troponin I (cTn-I) (human, UniProt P19429 1-210); assay: fiber-based SPR; LOD 2.5 nM (not a Kd); aptamer loaded at 200 nM; Detection buffer: 25 mM Tris base, 192 mM glycine, 0.05% Tween 20, 0.1% BSA, 2 mM CaCl2, 100 mM NaCl, pH 8.0; binding temperature not stated (RI calibration at); conditions: protein: recombinant
C-reactive protein (CRP) = biological target: T1, C-reactive protein (CRP) (human, UniProt P02741 19-224); assay: fiber-based SPR; LOD 1.7 nM (not a Kd); aptamer loaded at 100 nM; Detection buffer: 25 mM Tris base, 192 mM glycine, 0.05% Tween 20, 0.1% BSA, 2 mM CaCl2, 100 mM NaCl, pH 8.0; binding temperature not stated (RI calibration at); conditions: protein: recombinant; chain copies: 5
T1 sequence: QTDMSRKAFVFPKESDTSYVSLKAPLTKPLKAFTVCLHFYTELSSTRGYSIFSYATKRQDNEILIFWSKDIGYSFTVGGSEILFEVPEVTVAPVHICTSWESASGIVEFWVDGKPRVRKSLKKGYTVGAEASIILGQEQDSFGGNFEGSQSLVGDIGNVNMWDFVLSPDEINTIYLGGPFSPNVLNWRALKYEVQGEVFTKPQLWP

Sequence of cardiac troponin I (cTn-I) (P19429 whole entry): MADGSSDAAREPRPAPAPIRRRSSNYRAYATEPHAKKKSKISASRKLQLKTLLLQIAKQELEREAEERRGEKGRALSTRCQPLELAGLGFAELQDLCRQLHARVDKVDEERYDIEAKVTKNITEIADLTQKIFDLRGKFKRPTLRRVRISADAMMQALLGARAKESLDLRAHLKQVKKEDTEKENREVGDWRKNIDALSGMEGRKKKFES

## CGAAGGGGATTCGAGGGGTGATTGCGTGCTCCATTTGGTGTTTTT [cTn-I aptamer]
hemoglobin
  binding signal (% of specific response): < 20
fibrinogen
  binding signal (% of specific response): < 20

## GGCAGGAAGACAAACACGATGGGGGGGTATGATTTGATGTGGTTGTGCATGATCGTGGTCTGTGGTGCTGTTTTT [CRP aptamer]
hemoglobin
  binding signal (% of specific response): < 20
fibrinogen
  binding signal (% of specific response): < 20

## CGAAGGGGATTCGAGGGGTGATTGCGTGCTCCATTTGGTGTTTTT (ssDNA, 3' thiol) [cTn-I aptamer]
[1]
  binding result: binds

B1: CRP aptamer (ssDNA)
DNA: GGCAGGAAGACAAACACGATGGGGGGGTATGATTTGATGTGGTTGTGCATGATCGTGGTCTGTGGTGCTGTTTTT
modifications: 3' thiol
C-reactive protein (CRP)
  binding result: binds
